Measured values: patent US20090035307A1 (AbbVie / Abbott, published 2009)
Each block holds one binder with its values, some of them ahead of it.

How the values were obtained:
Aβ(20-42) globulomer = molecular target: T1, Aβ(20-42) globulomer (human); test: dot blot, antibody 0.2 µg/mL
T1 peptide: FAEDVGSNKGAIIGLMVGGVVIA
Experimental: (§1) For detection, the corresponding antibody was used (0.2 μg/mL). Immunostaining was done using peroxidase conjugated anti-mouse-IgG and the staining reagent BM Blue POD Substrate (Roche).
(§2) 1) 1 μL each of the different Aβ-standards (in their 5 serial dilutions) were dotted onto the nitrocellulose membrane in a distance of approximately 1 cm from each other. [0267] 2) The Aβ-standards dots were allowed to dry on the nitrocellulose membrane on air for at least 10 min at room temperature (RT) (=dot blot). [0268] 3) Blocking: [0269] The dot blot was incubated with 30 mL 5% low fat milk in TBS for 1.5 h at RT. [0270] 4) Washing: [0271] The blocking solution was discarded and the dot blot incubated under shaking with 20 mL TTBS for 10 min at RT. [0272] 5) Antibody solution I: [0273] The washing buffer was discarded and the dot blot incubated with antibody solution I for 2 h at RT. [0274] 6) Washing: [0275] The antibody solution I was discarded and the dot blot incubated under shaking with 20 mL TTBS for 10 min at RT. The washing solution was discarded and the dot blot incubated under shaking with 20 mL TTBS for 10 min at RT. The washing solution was discarded and the dot blot incubated under shaking with 20 mL TBS for 10 min at RT. [0276] 7) Antibody solution II: [0277] The washing buffer was discarded and the dot blot incubated with antibody solution II overnight at RT. [0278] 8) Washing: [0279] The antibody solution II was discarded and the dot blot incubated under shaking with 20 mL TTBS for 10 min at RT. The washing solution was discarded and the dot blot incubated under shaking with 20 mL TTBS for 10 min at RT. The washing solution was discarded and the dot blot incubated under shaking with 20 mL TBS for 10 min at RT. [0280] 9) Development: [0281] The washing solution was discarded. The dot blot was developed with 10 mL BM Blue POD Substrate for 10 min. The development was stopped by intense washing of the dot blot with H₂O. Quantitative evaluation was done using a densitometric analysis (GS800 densitometer (BioRad) and software package Quantity one, Version 4.5.0 (BioRad)) of the dot-intensity. […] This threshold value was determined for every dot-blot independently.

Aβ(1-42) monomer = molecular target: T2, Aβ(1-42) monomer (human); test: dot blot, antibody 0.2 µg/mL
T2 construct: Synthetic peptide (Bachem H-1368) freshly dissolved in 0.1% NH4OH or 0.1% NaOH; both preparations were dotted; also called Aβ(1-42) monomer, 0.1% NH4OH; Aβ(1-42) monomer, 0.1% NaOH
Experimental: as §1, §2

Aβ(1-40) monomer = molecular target: T3, Aβ(1-40) monomer (human); test: dot blot, antibody 0.2 µg/mL
T3 construct: Synthetic peptide (Bachem) freshly dissolved in 0.1% NH4OH or 0.1% NaOH; both preparations were dotted; also called Aβ(1-40) monomer, 0.1% NH4OH; Aβ(1-40) monomer, 0.1% NaOH
T3 sequence (peptide, as listed by the source): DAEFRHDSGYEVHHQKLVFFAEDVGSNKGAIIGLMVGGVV
Experimental: as §1, §2

Aβ(1-42) globulomer = molecular target: T4, Aβ(1-42) globulomer (human); test: dot blot, antibody 0.2 µg/mL
T4 construct: also called 38/48-kDa Aβ(1-42) globulomer; Aβ(1-42) globular oligomer
Experimental: as §1, §2

Aβ(12-42) globulomer = molecular target: T5, Aβ(12-42) globulomer (human); test: dot blot, antibody 0.2 µg/mL
T5 peptide: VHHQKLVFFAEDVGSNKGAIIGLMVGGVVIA
Experimental: as §1, §2

[1] = molecular target: T6, soluble amyloid precursor protein-alpha (sAPPα) (UniProt P05067-4 18-612, limits assumed); test: dot blot on nitrocellulose, densitometry
T6 construct: Bought protein; also called sAPPα (Sigma)
T6 sequence (P05067 other isoform, or with tags, fused parts or gaps limits assumed): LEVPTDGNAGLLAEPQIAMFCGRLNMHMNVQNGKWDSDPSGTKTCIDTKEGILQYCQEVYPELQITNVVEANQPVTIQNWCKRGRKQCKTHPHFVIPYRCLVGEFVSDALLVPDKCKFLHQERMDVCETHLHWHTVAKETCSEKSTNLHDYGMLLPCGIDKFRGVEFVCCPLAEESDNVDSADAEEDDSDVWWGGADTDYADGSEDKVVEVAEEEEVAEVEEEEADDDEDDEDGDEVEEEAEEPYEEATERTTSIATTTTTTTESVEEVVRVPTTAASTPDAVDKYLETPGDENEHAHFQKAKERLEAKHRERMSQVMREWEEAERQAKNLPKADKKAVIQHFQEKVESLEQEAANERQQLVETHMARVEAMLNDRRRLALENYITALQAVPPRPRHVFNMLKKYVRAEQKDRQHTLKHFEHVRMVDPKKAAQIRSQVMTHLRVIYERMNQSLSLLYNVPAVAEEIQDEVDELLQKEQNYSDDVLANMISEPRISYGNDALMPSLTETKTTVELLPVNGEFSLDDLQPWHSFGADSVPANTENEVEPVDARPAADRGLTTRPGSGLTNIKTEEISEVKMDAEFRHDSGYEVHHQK
Experimental: as §1
1) 1 μL each of the different Aβ-standards (in their 5 serial dilutions) were dotted onto the nitrocellulose membrane in a distance of approximately 1 cm from each other. [0267] 2) The Aβ-standards dots were allowed to dry on the nitrocellulose membrane on air for at least 10 min at room temperature (RT) (=dot blot). [0268] 3) Blocking: [0269] The dot blot was incubated with 30 mL 5% low fat milk in TBS for 1.5 h at RT. [0270] 4) Washing: [0271] The blocking solution was discarded and the dot blot incubated under shaking with 20 mL TTBS for 10 min at RT. [0272] 5) Antibody solution I: [0273] The washing buffer was discarded and the dot blot incubated with antibody solution I for 2 h at RT. [0274] 6) Washing: [0275] The antibody solution I was discarded and the dot blot incubated under shaking with 20 mL TTBS for 10 min at RT. The washing solution was discarded and the dot blot incubated under shaking with 20 mL TTBS for 10 min at RT. […] Quantitative evaluation was done using a densitometric analysis (GS800 densitometer (BioRad) and software package Quantity one, Version 4.5.0 (BioRad)) of the dot-intensity. […] This threshold value was determined for every dot-blot independently.

[2] = molecular target: T7, Aβ(1-42) peptide in the CSF of an Alzheimer's disease patient (human); test: immunoprecipitation from CSF with antibody-coated Dynabeads, urea-PAGE and Western blot
T7 construct: Endogenous peptide immunoprecipitated from patient CSF; also called Aβ(1-42) peptide present in cerebrospinal fluid (CSF)
Experimental: Activation of Dynabeads with monoclonal mouse antibodies [0497] the stock-suspension of dynabeads (Dynabeads M-280 Sheep anti-Mouse IgG, Invitrogen; Prod. No. 112.02) was shaken carefully to prevent foaming [0498] 1 mL was aseptically removed and transferred to a 1.5 mL reaction vial [0499] the dynabeads were washed 3 times 5 min with 1 mL immunoprecipitation (IP)-wash buffer (IP-wash-buffer: PBS (20 mM NaH₂PO₄, 140 mM NaCl, pH 7.4), 0.1% (w/v) BSA) During the washing procedure the supernatant was carefully removed while the dynabeads were immobilized at the side of the reaction vial with a magnetic separator stand (MSS) [0500] the washed dynabeads were incubated with 40 μg Aβ-antibody in 1 mL PBS, 0.1% (w/v) BSA [0501] the activation was carried out by overnight incubation under shaking at 4° C. [0502] the activated dynabeads were washed 4 times 30 min (again using the MSS) with 1 mL IP-wash buffer (PBS (20 mM NaH₂PO₄, 140 mM NaCl, pH 7.4), 0.1% (w/v) BSA) [0503] the activated dynabeads were resuspended with 1 mL PBS, 0.1% (w/v) BSA, 0.02% (w/v) Na-Azide; vortexed and centrifuged briefly [0504] the antibody activated dynabeads were stored at 4° C. until further use
250 μL aliquot of the prepared CSF sample were added to 25 μL anti-Aβ-Dynabeads suspension [0507] Immunoprecipitation occurred under stirring at 6° C. for 16 hours. […]

- binding result (Aβ(20-42) globulomer): binds
- binding result (Aβ(1-42) monomer): binds
- binding result (Aβ(1-40) monomer): binds
- binding result (Aβ(1-42) globulomer): binds
- binding result (Aβ(12-42) globulomer): binds
- binding result [2]: binds
B1: monoclonal antibody 3C5 (antibody, V domains shown)
VH: DVQLQESGPGLVKPSQSLSLTCTVAGSSITSHYAWNWIRQFPGNKLEWMGYIDYSGSTRYLPSLKSRISITRDTSKNQFFLQLNSVTTEDTATYYCARGSGYFYGMDYWGQGTSVTVSS
VL: DIQMNQSPSSLSPSLGDTITITCHASQNINVWLSWYQQKPGNIPKLLIYKASNLHTGVPSRFSGSGSGIGFTLTIRSLQPEDIATYFCQQGQSYPYTFGGGTKLEIKR
notes: Murine monoclonal antibody from a hybridoma (Balb/c mice immunized with Aβ(12-42) globulomer); also called mAb 3C5; ML45-3C5.5
- binding result [1]: no binding (tested: antibody 0.2 µg/mL; first dot: 1 pmol)

- binding result (Aβ(20-42) globulomer): binds
- binding result (Aβ(1-42) monomer): binds
- binding result (Aβ(1-40) monomer): binds
- binding result (Aβ(1-42) globulomer): binds
- binding result (Aβ(12-42) globulomer): binds
- binding result [2]: binds
B2: monoclonal antibody 10F4 (antibody, V domains shown)
VH: QVQLQQSGAELVRPGTSVRVSCKASGYAFTNYLIEWVKQRPGQGLEWIGVINPGSGDTNYNENFKGKATLTADKSSSTAYMHLSSLTSDDSAVYFCTRGVITTGFDYWGQGTTLTISS
VL: DIQMTQSPASLSASVGETVTITCRASGNIHNYLAWYQQKQGKSPQLLVYNAKTLADGVPSRFSGSGSGTQYSLKINSLQPEDFGSYYCQHFWSSPRTFGGGTKLEIKR
notes: Murine monoclonal antibody from a hybridoma (Balb/c mice immunized with Aβ(12-42) globulomer); also called mAb 10F4; ML43-10F4.3H8
- binding result [1]: no binding (tested: antibody 0.2 µg/mL; first dot: 1 pmol)
